The results in this text go back to patent publication US20230324404A1 (Takeda / Millennium, published 2023).

What is called EC25 is the point of the concentration-response curve where the effect stands at 25%. A high value points to weaker potency. By EC50 is commonly meant the concentration that produces a half-maximal response.

Substitutions are numbered along the chain they refer to. Like-named read-outs stand apart in the source and are kept apart here.

The target of test [1] is T1, DENV2 VLP (strain Thailand/16681/84) (Dengue virus serotype 2 strain …).
T1 construct: also called dengue-2 virus like particle
As to the kind of experiment: microsphere immunoassay, DENV2 VLP-coupled microspheres, 120 min incubation.

For test [2], the target named is T2, ZIKV VLP (zika virus like particle, isolate Z1106033) (Zika virus isolate Z1106033 (Suriname, …, UniProt A0A024B7W1 123-794)).
T2 construct: also called zika VLP; ZIKV VLPs

In test [3] the target is T3, DENV4 VLP (strain Dominica/814669/1981) (Dengue virus serotype 4 strain …, UniProt P09866 114-732).
T3 construct: also called dengue-4 virus like particle
Description: microsphere immunoassay, DENV4 VLP-coupled microspheres, 120 min incubation.

The target in test [4] is T4, DENV1 VLP (strain Puerto Rico/US/BID-V853/1998) (Dengue virus serotype 1 strain Puerto …).
T4 construct: also called dengue-1 virus like particle
Description: microsphere immunoassay, DENV1 VLP-coupled microspheres, 120 min incubation.

Test [5] has as its target T5, DENV3 VLP (strain Sri Lanka D3/H/IMTSSA-SRI/2000/1266) (Dengue virus serotype 3 strain Sri …).
T5 construct: also called dengue-3 virus like particle
As to the kind of experiment: microsphere immunoassay, DENV3 VLP-coupled microspheres, 120 min incubation.

Test [6] has as its target T4, DENV1 VLP (strain Puerto …). Description: microsphere immunoassay, DENV1 VLP-coupled microspheres.
For test [7], the target named is T5, DENV3 VLP (strain Sri Lanka …). Description: microsphere immunoassay, DENV3 VLP-coupled microspheres.
Test [8] concerns the target T2, ZIKV VLP (zika virus like particle, …). This is another data set of the same source.
Test [9] addresses T1, DENV2 VLP (strain Thailand/16681/84). As to the kind of experiment: microsphere immunoassay, DENV2 VLP-coupled microspheres.
Test [10] deals with T2, ZIKV VLP (zika virus like particle, …). This is another data set of the same source.
For test [11], the target named is T3, DENV4 VLP (strain Dominica/814669/1981). Description: microsphere immunoassay, DENV4 VLP-coupled microspheres.
In test [12] the target is rZIKV-EDIII-1 (recombinant 6xHis-SUMO-tagged ZIKV EDIII) (Zika virus strain H/PF/2013, UniProt A0A024B7W1 589-697). Description: Bio-layer interferometry (Octet).

B1: Anti-ZIKV #9 (Clone 181-4) (antibody)
heavy: QAQLEESGGDLVKPEGSLTLTCTASGFSFTDRHYMCWVRQAPGKGLEWIACVYPGSSGSTYYASWARGRFTISKTSSTTVTLRMTSLTAADTATYFCARSSYPDSSGYSYGMDLWGPGTLVTVSSGQPKAPSVFPLAPCCGDTPSSTVTLGCLVKGYLPEPVTVTWNSGTLTNGVRTFPSVRQSSGLYSLSSVVSVTSSSQPVTCNVAHPATNTKVDKTVAPSTCSKPTCPPPELLGGPSVFIFPPKPKDTLMISRTPEVTCVVVDVSQDDPEVQFTWYINNEQVRTARPPLREQQFNSTIRVVSTLPIAHQDWLRGKEFKCKVHNKALPAPIEKTISKARGQPLEPKVYTMGPPREELSSRSVSLTCMINGFYPSDISVEWEKNGKAEDNYKTTPAVLDSDGSYFLYSKLSVPTSEWQRGDVFTCSVMHEALHNHYTQKSISRSPGK
light: DIVMTQTPASVEAAVGGTVTIKCQASQNINSNLAWYQQKPGQRPKFLMYLTSKLASGVPSRFRGSGSGTQFTLTISDLECADAATYYCQTYYDISNYGYAFGGGTEVVVKGDPVAPTVLIFPPAADQVATGTVTIVCVANKYFPDVTVTWEVDGTTQTTGIENSKTPQNSADCTYNLSSTLTLTSTQYNSHKEYTCKVTQGTTSVVQSFNRGDC
As to B1, the binding result in test [1], in [3], in [4] and in test [5] was “no binding (tested: 0.001 to 20 µg/mL)” throughout. The molecule also yielded an EC25 in [2] of 0.0059 µg/mL. Moreover, in [2], the EC50 is 0.0156 µg/mL.

B2: Anti-ZIKV #10 (Clone 329-2) (antibody)
heavy: B1 heavy
light: B1 light
On to B2, for which the binding result in test [1], in test [3], in test [4] and in [5] was “no binding (tested: 0.001 to 20 µg/mL)” throughout. In addition, the 25% effect level in test [2] (EC25) was put at 0.0043 µg/mL. For the same molecule, the EC50 in test [2] was determined as 0.0145 µg/mL.

B3: Anti-ZIKV #2 (Clone 242-3) (antibody, V domains shown)
VH: QAQLEESGGDLVKPEGSLTLTCTASGFSFTDRHYMCWIRQAPGKGLEWIACVYPGSSGSTYYASWARGRFTISKTSSTTVTLRMTSLTAADTATYFCARSSYPDSSGYSYGMDLWGPGTLVTVSS
VL: DIVMTQTPASVEAAVGGTVTIKCQASQNINSNLAWYQQKPGQRPKFLMYLTSKLASGVPSRFRGSGSGTQFTLTISDLECADAATYYCQTYYDISNYGYAFGGGTEVVVKG
With B3, the binding result in test [6], in test [7], in [9] and in [11] was “no binding (tested: 0.001 to 20 µg/mL)” each time. Further, in [2], the EC25 is 0.0024 µg/mL. Besides, the EC50 in test [2] is 0.008 µg/mL; in test [8], 0.044 µg/mL; in [10], 0.14 µg/mL.

B4: Anti-ZIKV #8 (Clone 260-2) (antibody)
heavy: B1 heavy with S124P
light: B1 light
For the molecule B4, the binding result in test [1], in test [3], in [4] and in [5] was “no binding (tested: 0.001 to 20 µg/mL)” each time. It took 0.0075 µg/mL to reach the 25% level in [2] (EC25). In test [2], this molecule had an EC50 of 0.0252 µg/mL.

B5: Anti-ZIKV #3 (Clone 270-12) (antibody, V domains shown)
VH: B3 VH with I38V
VL: B3 VL with N28D
As for B5, the binding result in [6], in test [7], in test [9] and in test [11] was “no binding (tested: 0.001 to 20 µg/mL)” each time. The EC25 in [2] was determined as 0.0045 µg/mL. In addition, the results for the EC50 in test [2], in test [8] and in test [10] were 0.0144 µg/mL, 0.061 µg/mL and 0.181 µg/mL, respectively.

B6: Anti-ZIKV #7 (IgG2a kappa, Clone ZKA-64) (antibody, V domains shown)
VH: QVQLVQSGAEVKKPGASVKVSCKASGYTFTGYHIDWVRQARGQGLEWMGRINPNSGGTNYAQKFQGRVTMTRDTSISTAYMQLSRLRSDDSAVYYCARMSSSIWGFDHWGQGTLVTVSS
VL: EIVMTQSPATLSVSPGERATLSCRASQSVLINLAWYQQKPGQAPRLLIYGASSRATGIPARFSGSGSGTEFTLTISSLQSEDFAVYYCQQYNDWPPITFGQGTRLEIK
For the molecule B6, the binding result in test [6], in test [7], in [9] and in [11] was “no binding (tested: 0.001 to 20 µg/mL)” each time. In test [2], this molecule gave an EC25 of 0.0296 µg/mL. In addition, the figures for the EC50 in test [2], in test [8] and in test [10] were 0.101 µg/mL, 0.423 µg/mL and 1.18 µg/mL, respectively.

B7: Anti-ZIKV #11 (Clone 11-3) (antibody, V domains shown)
VH: QEQLVESGGGLVQPEGSLTITCTGSGFSFSSRFYMCWVRQAPGKGLEWIACIYGGSSGSTYYASWAKGRFTISKTSSTTVTLQISSLTAADTATYFCARGGSTAAAGFNLWGPGTLLTVSS
VL: DVVMTQTPASVSATVGGTVTIKCQASEDIYNLLAWYQQKPGQPPKLLIYYASTLASGVPSRFKGSGSGTEFTLTISDLECADAATYYCQCNDYGGTYVPNAFGGGTEVVVKG
Regarding B7, the binding result in test [1], in test [3], in test [4] and in test [5] was “no binding (tested: 0.001 to 20 µg/mL)” throughout. This molecule also returned an EC25 in test [2] of 0.0032 µg/mL. For the same molecule, the EC50 in test [2] worked out at 0.0105 µg/mL.

B8: Anti-ZIKV #4 (Clone 289-3) (antibody, V domains shown)
VH: QEELEESGGDLVKPGASLTLTCKASGFSFSSGAYICWVRQAPGKGPEWIACIYTGDGRTYYANWAKRRFTISSSSSTTVALEMPSLTDADTATYFCARAIAVGAGYGVGNYFTLWGPGTLVTVSS
VL: DIVMTQTPSSVSAAVGGTVTINCHASENIYGYLSWYQQKPGQPPKLLIYKASTLASGVPSRFKGSGAGTQFTLTITALECADAATYYCQSYYTSSSNADGSENAFGGGTEVVVEG
B8: the binding result in test [6] was “no binding (tested: 0.001 to 20 µg/mL)”; in test [7], “no binding (tested: 0.001 to 20 µg/mL)”; in [12] it was “binds”; in test [9], “no binding (tested: 0.001 to 20 µg/mL)”; in test [11], “no binding (tested: 0.001 to 20 µg/mL)”.

B9: Anti-ZIKV #6 (IgG2c kappa, Clone ZV-67) (antibody, V domains shown)
VH: QAQLQQSGTGLARPGASVKLSCKASGYTFTSYGISWVTQRAGQGLEWIGVIYPRSGNTYYNEKFRGKATLTADKSSSSAYMELRGLTAEDSAVYFCARENYGSVYWGQGTTLTVSS
VL: DIVMTQSQKFMSTSVGDRVSITCKASQNVGTAVAWYQQKPGQSPKLLIYSASNRYTGVPDRFTGSGSGTDFTLTISNMQSEDLADYFCQQFSSYPYTFGGGTKLEIK
With B9, the binding result in test [6], in [7], in [9] and in test [11] was “no binding (tested: 0.001 to 20 µg/mL)” each time. For the same molecule, in test [2], the EC25 came to 0.0081 µg/mL. The EC50 is 0.0273 µg/mL in test [2], 0.134 µg/mL in test [8] and 0.677 µg/mL in test [10].

B10: Anti-ZIKV #5 (Clone 306-2) (antibody, V domains shown)
VH: QSLEESGGDLVKPGASLTLTCTASGFDFSDRYYMCWVRQAPGKGLEWIGCIYVGSGDTYYASWAKGRFTISRTSSTTVTLQMTRLTAADTATYFCARHPGTYFTLWGPGTLVTVSS
VL: DVVMTQTPSSVSAAVGGTVTINCQASQNIVNNLAWYQQRPGQPPKLLIYDTSTLASGVPSRFKGSGSGTEFTLTISDLECADAATYYCQTYYYYNKIINGFGGGTEVVVKG
As for B10, the binding result in test [6], in test [7], in test [9] and in [11] was “no binding (tested: 0.001 to 20 µg/mL)” in each case. In test [2], this molecule yielded an EC25 of 0.0047 µg/mL. Further, the EC50 was found to be 0.0158 µg/mL in test [2], 0.066 µg/mL in [8] and 0.256 µg/mL in test [10].
